Patent US20160199524A1, “RADIOSENSITIVITY OF FLUOROPHORES AND USE OF RADIOPROTECTIVE AGENTS FOR DUAL-MODALITY IMAGING” (Immunomedics, Inc., priority 2015, published 2016)
pIC50: −log10 of the molar value. Read-outs that look alike come from different tables or passages of the source. *1 amine or outer side, *2 acyl side, *3 side chain or, on linkers, in order; H or OH if unused. Where a SMILES comes first, the peptide text is derived from it. Side-chain parts run from the residue outwards. [ ]: non-standard residue; d: D form. The star is where a group is joined. HSG = histamine succinyl glycyl group, O=C(CCC(=O)NCC(=O)*)NCCc1c[nH]cn1; DOTA = O=C(O)CN1CCN(CC(=O)O)CCN(CC(=O)*)CCN(CC(=O)O)CC1; NH(2-(imidazol-4-yl)ethyl) = c1ncc(CCN*)[nH]1; Suc = O=C(CCC(=O)[*:2])[*:1]

Experiments:
[1] = Effect of heating on fluorescence of 800CW; format: physicochemical; conditions: NaAc 0.1 M pH 4.5, 1 h at 95° C.
Description: To investigate the effect of heating on the fluorescence of 800CW, 5 μg/mL solutions of the dye in NaAc (0.1 M, pH 4.5) were placed in a heating block at 95° C. for 5, 15, 30, or 60 min. Following, samples were cooled down to room temperature, measured in the plate reader, and the fluorescence of each sample was normalized to a non-heated control.

[2] = IRDye800CW irradiations (radiobleaching); format: physicochemical
Description: To assess the radiosensitivity of 800CW, 5 μg/mL aqueous solution of the dye in 0.1 M NaAc buffer pH 4.5 was prepared and mixed with increasing activities of ^68Ga, ^111In, and ^213Bi (1-20 MBq) for a 310 μL final volume. Radioactive solutions were incubated in 1.5 mL Eppendorf tubes at 4° C. in the dark, and 100 μL aliquots taken at 0.5, 6, and 24 h time points for fluorescence measurement. The effect of volume on 800CW's radiosensitivity was determined by incubating 150, 300, 550,800, or 1050 μL of 5 μg/mL buffered dye solution with 20 MBq of ^68Ga. All fluorescence readings were normalized to non-irradiated controls.

CEA = molecular target: T1, CEA (Homo sapiens, UniProt P06731); assay: Immunoreactivity with excess CEA by SE-HPLC; format: binding; conditions: 0.74-GBq run
T1 sequence (P06731 35-676): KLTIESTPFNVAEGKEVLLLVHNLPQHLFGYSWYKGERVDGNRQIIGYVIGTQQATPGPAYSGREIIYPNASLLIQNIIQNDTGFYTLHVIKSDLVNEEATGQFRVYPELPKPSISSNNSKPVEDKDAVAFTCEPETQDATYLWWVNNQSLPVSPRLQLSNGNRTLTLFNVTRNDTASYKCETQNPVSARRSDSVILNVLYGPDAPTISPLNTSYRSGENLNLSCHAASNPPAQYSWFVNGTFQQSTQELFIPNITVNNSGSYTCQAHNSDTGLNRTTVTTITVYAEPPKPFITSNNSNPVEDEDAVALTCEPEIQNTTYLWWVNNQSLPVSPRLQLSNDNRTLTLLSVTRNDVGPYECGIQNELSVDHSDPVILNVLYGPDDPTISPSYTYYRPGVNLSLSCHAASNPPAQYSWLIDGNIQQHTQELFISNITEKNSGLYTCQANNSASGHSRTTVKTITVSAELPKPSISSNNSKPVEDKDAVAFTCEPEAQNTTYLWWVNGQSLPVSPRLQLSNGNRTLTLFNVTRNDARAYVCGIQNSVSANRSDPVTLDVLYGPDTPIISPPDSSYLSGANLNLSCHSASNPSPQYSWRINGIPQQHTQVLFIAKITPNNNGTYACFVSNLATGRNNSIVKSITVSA
Description: Immunoreactivity of the purified product was analyzed by adding an excess of CEA and separating on SE-HPLC, comparing to a profile of the product alone. The product was also analyzed by RP-HPLC to assess percent-unbound Al^18F(NOTA-MPAEM).

[3] = tested on: nude mice bearing Capan-1 human pancreatic cancer xenografts; conditions: mouse, in vivo
Description: (§3) Nude mice were inoculated subcutaneously with CaPan-1 human pancreatic adenocarcinoma (ATCC Accession No. HTB-79, Manassas, Va.). When tumors were visible, the animals were injected intravenously with 100 μL of the radiolabeled Fab′. […] The animals were necropsied at 3 h post injection, tissues and tumors removed, weighed, and counted by gamma scintillation, together with standards prepared from the injected products. The data are expressed as percent injected dose per gram.

[4] = tested on: nude mice bearing Capan-1 human pancreatic cancer xenografts; assay: Biodistribution of radiolabeled Fab′; conditions: 3 h after injection
Description: as §3

[5] = Stability of ^18F-labeled IMP449 in human serum at 37° C.
Description: Three microliters of a 2 mM solution of Al in a pH 4 acetate buffer was mixed with 15 μL, 1.3 mCi of ^18F. […] […] […] Another aliquot was removed after 1 hr and analyzed by HPLC.

[6] = molecular target: somatostatin receptors on AR42J cells (rat); assay: apparent IC50; competition with ^111In(DTPA-octreotide) on AR42J cells, 3 h at RT
Chain of somatostatin receptors on AR42J cells (rat) (P30680 whole entry): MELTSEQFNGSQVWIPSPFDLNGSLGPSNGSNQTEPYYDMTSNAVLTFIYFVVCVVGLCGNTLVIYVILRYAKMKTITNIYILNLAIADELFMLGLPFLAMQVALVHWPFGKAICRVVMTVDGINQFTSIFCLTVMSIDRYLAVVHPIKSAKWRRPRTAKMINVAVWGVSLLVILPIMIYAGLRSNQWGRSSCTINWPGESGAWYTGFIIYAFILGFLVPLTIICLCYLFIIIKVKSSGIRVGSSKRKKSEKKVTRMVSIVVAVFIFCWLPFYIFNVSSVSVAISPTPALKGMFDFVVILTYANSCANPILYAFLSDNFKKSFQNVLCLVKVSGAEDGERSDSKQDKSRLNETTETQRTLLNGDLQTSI

[7] = Stability of Al^18F(IMP467) in human serum or PBS; format: in vitro ADME
Description: An aliquot of the HLB purified peptide (˜30 μL) was diluted with 200 μL human serum (previously frozen) and placed in the 37° C. HPLC sample chamber. Aliquots were removed at various time points and analyzed by HPLC.
Optimized conditions for ^18F-labeling of IMP467 were identified. These consisted of eluting ^18F^− with commercial sterile saline (pH 5-7), mixing with 20 nmol of AlCl3 and 40 nmol IMP467 in pH 4 acetate buffer in a total volume of 100 μL, heating to 102° C. for 15 min, and performing SPE separation. High-yield (85%) and high specific activity (115 GBq/μmol) were obtained with IMP467 in a single step, 30-min procedure after a simple solid-phase extraction (SPE) separation without the need for HPLC purification. Al^18F(IMP467) was stable in PBS or human serum, with 2% loss of ^18F after incubation in either medium for 6 h at 37° C.

[8] = Radioprotection of 800CW with radical scavengers; format: physicochemical; conditions: for radioprotection of 800CW: 20 MBq of ^68Ga, 0.5, 3 and 6 h exposure
Description: The radioprotective effect of three common hydroxyl radical scavengers, ethanol, gentisic acid (GA) and ascorbic acid (AA) was tested. […]

[9] = tested on: nude mice bearing LS174T human colonic xenografts; assay: Biodistribution of ^18F-labeled agents with or without TF2 pretargeting; conditions: not pretargeted
Source text: Six-week-old NCr nu-m female nude mice were implanted s.c. with the human colonic cancer cell line, LS174T (ATCC, Manassas, Va.).
Tissues were weighed and counted together with a standard dilution prepared from each of the respective products. Due to the short physical half-life of ^18F, standards were interjected between each group of tissues from each animal. Uptake in the tissues is expressed as the counts per gram divided by the total injected activity to derive the percent-injected dose per gram (% ID/g).

[10] = PET/CT images, region of interest ratios; format: in vivo, mice; conditions: male, BALB/c nude, mouse, iv, total radioactivity, mice with LS174T tumor and inflamed muscle, ^68Ga(IMP288) after TF2
Description: (§1) PET images were acquired with an Inveon animal PET/CT scanner (Siemens Preclinical Solutions, Knoxville, Tenn.). PET emission scans were acquired for 15 minutes, preceded by CT scans for anatomical reference (spatial resolution 113 μm, 80 kV, 500 μA, exposure time 300 msec).
(§2) Uptake in the tumor was evaluated quantitatively by drawing regions of interest (ROI), using a 50% threshold of maximum intensity. A region in the abdomen was used as background region.

[11] = tested on: nude BALB/c mice with s.c. LS174T tumors; assay: PET/CT images, region of interest ratios; format: in vivo
Description: as §1, §2

[12] = Stability of ^18F-labeled IMP272 in PBS (reverse phase HPLC); format: physicochemical; conditions: incubated at room temperature with PBS for ~1 hr
Description: ^18F-Labeling of IMP272—A 3 μL aliquot of the aluminum stock solution was placed in a REACTI-VIAL™ and mixed with 50 μL ^18F (as received) and 3 μL of the IMP272 solution. […] The remainder of the peptide solution was incubated at room temperature with 150 μL PBS for ˜1 hr and then examined by reverse phase HPLC.

## CC1(C)C(/C=C/C2=C(Oc3ccc(S(=O)(=O)O)cc3)C(=C/C=C3/N(CCCCS(=O)(=O)O)c4ccc(S(=O)(=O)[O-])cc4C3(C)C)/CCC2)=[N+](CCCCCC(=O)O)c2ccc(S(=O)(=O)O)cc21 [800CW]
[1]
  fluorescent intensity, % of the initial values: 60%
[2]; 0.1 M NaAc pH 4.5, 30 min exposure, increasing activities
  change of 800CW fluorescence on exposure to ^68Ga: pronounced dose-dependent decrease
[2]; similar activity level and exposure times
  extent of radiobleaching by the three radionuclides, trend: ^68Ga>^111In>^213Bi

## Al^18F(NOTA-MPAES)-hMN-14 Fab′: Al^18F(NOTA-MPAEM) conjugated to Fab′ of humanized MN-14 anti-CEACAM5 IgG (labetuzumab)
CEA
  shift of activity on SE-HPLC when excess CEA was added: all of the activity shifted
[3]
  T/NT Liver: 0.2 ± 0.04
  T/NT Lung: 0.8 ± 0.5
  T/NT Muscle: 6.7 ± 1.3
  T/NT Scapula: 1.8 ± 0.4
  T/NT Sm. Int.: 1.3 ± 0.1
  T/NT Spleen: 0.3 ± 0.04
  T/NT Stomach: 4.7 ± 1.2
[4]
  % ID/g Blood: 0.5 ± 0.1 % ID/g
  % ID/g Capan-1 tumor: 2.8 ± 0.3 % ID/g
  % ID/g Kidney: 216 ± 30.9 % ID/g
  % ID/g Lg. Int.: 1.1 ± 0.4 % ID/g
  % ID/g Liver: 17.5 ± 3.8 % ID/g
  % ID/g Lung: 4.2 ± 1.6 % ID/g
  % ID/g Muscle: 0.4 ± 0.1 % ID/g
  % ID/g Scapula: 1.6 ± 0.4 % ID/g
  % ID/g Sm. Int.: 2.2 ± 0.2 % ID/g
  % ID/g Spleen: 11.3 ± 1.6 % ID/g
  % ID/g Stomach: 0.6 ± 0.1 % ID/g
  T/NT Blood (tumor/blood ratio): 5.9 ± 1.3
  T/NT Kidney: 0.0 ± 0.0
  T/NT Lg. Int.: 2.8 ± 0.7
[4]; listed as [Al^18F]-Fab′
  % ID/g Capan-1 tumor: 2.8±0.3 % ID/g
  T/NT Blood (tumor/blood ratio): 5.9±1.3

## C[C@@H](NC(=S)Nc1ccc(CC2CN(CC(=O)O)CCN(CC(=O)O)CCN2CC(=O)O)cc1)C(=O)N[C@H](CCCCNC(=O)CNC(=O)CCC(=O)NCCc1c[nH]cn1)C(=O)N[C@H](Cc1ccc(O)cc1)C(=O)N[C@H](CCCCNC(=O)CNC(=O)CCC(=O)NCCc1c[nH]cn1)C(N)=O (stereo partly drawn) [IMP449, NOTA-benzyl-ITC-D-Ala-D-Lys(HSG)-D-Tyr-D-Lys(HSG)-NH2]
[5]
  stability in human serum: 76%
[5]; purified, 37° C., at least one hour
  stability in human serum: 91%

## Al^19F(IMP466) (peptide)
[6]
  pIC50: 8.44

## C-NETA-succinyl-D-Lys(HSG)-D-Tyr-D-Lys(HSG)-NH2 ({C‑NETA-Suc}-[dK](HSG)-[dY]-[dK](HSG)-NH2) [IMP467]
[7]; human serum, 37° C., five hour incubation
  breakdown of ^18F-labeled peptide in serum: no detectable breakdown

## ^69Ga(IMP466) (peptide)
[6]
  pIC50: 7.89

## O=C1O[C@H]([C@@H](O)CO)C(O)=C1O [AA, ascorbic acid]
[8]; 0.1% (w/v) AA
  radioprotection against ^111In and ^213Bi induced radiobleaching of 800CW: effective radioprotection
[8]; 20 MBq of ^68Ga, longer radiation exposure
  concentrations that completely preserve 800CW fluorescence: 0.001-10 % (w/v)

## ^115In(DTPA-octreotide) (peptide)
[6]
  pIC50: 8.20

## [18FH] [^18F, reference compound]
[9]
  tumor/blood ratio: 6.7±2.7

## NC(=O)[C@@H](CCCCNC(=O)CNC(=O)CCC(=O)NCCc1c[nH]cn1)NC(=O)[C@@H](CCC(=O)O)NC(=O)[C@@H](CCCCNC(=O)CNC(=O)CCC(=O)NCCc1c[nH]cn1)NC(=O)[C@@H](Cc1ccc(O)cc1)NC(=O)CN1CCN(CC(=O)O)CCN(CC(=O)O)CCN(CC(=O)O)CC1 [^68Ga(IMP288), metal not drawn] ({DOTA}-[dY][dK]([Gly-Suc-NH(2-(imidazol-4-yl)ethyl)])[dE][dK]([Gly-Suc-NH(2-(imidazol-4-yl)ethyl)])-NH2)
[10]; read-out: inflamed muscle-to-background ratio in PET/CT image
  tissue to tissue ratio at 1 h: 8.9
[10]; read-out: tumor-to-background ratio in PET/CT image
  tissue to tissue ratio at 1 h: 48
[11]; TF2 and ^68Ga(IMP288), 1 h, ROI 50% threshold, abdomen as background
  tumor-to-background ratio in PET image: 38.2
[11]; mice with LS174T tumor and inflamed muscle, ^68Ga(IMP288) after TF2
  tumor-to-inflamed tissue ratio in PET/CT image: 5.4

## NC(=O)[C@@H](CCCCNC(=O)CNC(=O)CCC(=O)NCCc1c[nH]cn1)NC(=O)[C@@H](Cc1ccc(O)cc1)NC(=O)[C@@H](CCCCNC(=O)CNC(=O)CCC(=O)NCCc1c[nH]cn1)NC(=O)CCC(=O)Nc1ccc(CC(CN2CCN(CC(=O)O)CCN(CC(=O)O)CC2)N(CC(=O)O)CC(=O)O)cc1 (stereo partly drawn) [Al^18F(IMP467)]
[7]; incubation in PBS or human serum for 6 h at 37° C.
  loss of ^18F: 2%

## O=C(O)c1cc(O)ccc1O [GA, gentisic acid]
[8]
  radioprotection of 800CW: both concentration and exposure time dependent

## CCO [EtOH, ethanol]
[8]
  radioprotection of 800CW: both concentration and exposure time dependent

## DTPA-Gln-Ala-Lys(HSG)-D-Tyr-Lys(HSG)-NH2 [IMP272]
[12]
  ^18F still attached to the peptide: 42%
  ^18F unbound: 58%
